Assay results from patent US20200207830A1, “TREM2 MUTANTS RESISTANT TO SHEDDASE CLEAVAGE” (NOVARTIS AG, priority 2017, published 2020).
No end group written: not given here.

B1: TRUNCIII-159-174: human TREM2 mutant, deletion of the 16 amino acids 159-174 proximal to the transmembrane domain; SEQ ID NO: 44 (protein)
chain: MEPLRLLILLFVTELSGAHNTTVFQGVAGQSLQVSCPYDSMKHWGRRKAWCRQLGEKGPCQRVVSTHNLWLLSFLRRWNGSTAITDDTLGGTLTITLRNLQPHDAGLYQCQSLHGSEADTLRKVLVEVLADPLDHRDAGDLWFPGESESFEDAHVEHSILLLLACIFLIKILAASALWAAAWHGQKPGTHPPSELDCGHDPGYQLQTLPGLRDT
B2: T2del11-16: human TREM2 6 amino acid deletion mutant of the stalk region; SEQ ID NO: 45 (protein)
chain: MEPLRLLILLFVTELSGAHNTTVFQGVAGQSLQVSCPYDSMKHWGRRKAWCRQLGEKGPCQRVVSTHNLWLLSFLRRWNGSTAITDDTLGGTLTITLRNLQPHDAGLYQCQSLHGSEADTLRKVLVEVLADPLDHRDAGDLWFPGESESFEDAHVEHSEGEIPFPPTSILLLLACIFLIKILAASALWAAAWHGQKPGTHPPSELDCGHDPGYQLQTLPGLRDT

Each molecule was assayed against ADAM17 (Homo sapiens, UniProt P78536) (assay: In vitro cleavage of TREM2 stalk region peptides by ADAM17 (HPLC)). Details: neutral buffer, up to 48 hours, HPLC of parent peptide.
Format: biochemical
Source text: FIGS. 5A-5E show ADAM17 cleaves TREM2 stalk region peptides in vitro at H157-S158. […] All peptides were obtained with an N-terminal 7-methoxycoumarin (Mca) fluorescent tag […]. Underlined amino acids indicates main sheddase cleavage site. AA112-171: SEQ ID NO: 24; Peptide 1: SEQ ID NO: 25; Peptide 2: SEQ ID NO: 26; Peptide 3: SEQ ID NO: 27; Peptide la: SEQ ID NO: 28; Peptide 2a: SEQ ID NO: 29; Peptide 4: SEQ ID NO: 30; Peptide 5: SEQ ID NO: 31; Peptide 6: SEQ ID NO: 32. […] FIG. 5C discloses SEQ ID NOS 83, 51 and 84, respectively, in order of appearance.
In order to identify the cleavage site of ADAM10/ADAM17 within the stalk region of TREM2, in vitro cleavage patterns of stalk region-derived peptides were investigated and confirmed the cleavage site by determination of the C-terminus of shed soluble TREM2 from cell culture supernatants. A series of peptides covering the stalk region were designed for in vitro investigation of ADAM10/ADAM17 cleavage (FIG. 5A). All peptides were obtained with an N-terminal 7-methoxycoumarin (Mca) fluorescent tag. Peptides 1-3, 1a and 2a were incubated with ADAM17 in neutral buffer for up to 48 hours, and reaction was followed by HPLC analysis of aliquots withdrawn at different time points.
HPLC-MS analysis of the reaction mixture of peptide3/ADAM17 identified one major product, SISRSLLEGEIPFP-NH2(SEQ ID NO: 51), together with 2 minor cleavage products (FIGS. 5B-5C). […] At these time points there was essentially no substrate left. Therefore, it can be concluded that the minor cleavage products originate from secondary ADAM17 cleavage of the main product.

Sequence of ADAM17 (P78536 215-824): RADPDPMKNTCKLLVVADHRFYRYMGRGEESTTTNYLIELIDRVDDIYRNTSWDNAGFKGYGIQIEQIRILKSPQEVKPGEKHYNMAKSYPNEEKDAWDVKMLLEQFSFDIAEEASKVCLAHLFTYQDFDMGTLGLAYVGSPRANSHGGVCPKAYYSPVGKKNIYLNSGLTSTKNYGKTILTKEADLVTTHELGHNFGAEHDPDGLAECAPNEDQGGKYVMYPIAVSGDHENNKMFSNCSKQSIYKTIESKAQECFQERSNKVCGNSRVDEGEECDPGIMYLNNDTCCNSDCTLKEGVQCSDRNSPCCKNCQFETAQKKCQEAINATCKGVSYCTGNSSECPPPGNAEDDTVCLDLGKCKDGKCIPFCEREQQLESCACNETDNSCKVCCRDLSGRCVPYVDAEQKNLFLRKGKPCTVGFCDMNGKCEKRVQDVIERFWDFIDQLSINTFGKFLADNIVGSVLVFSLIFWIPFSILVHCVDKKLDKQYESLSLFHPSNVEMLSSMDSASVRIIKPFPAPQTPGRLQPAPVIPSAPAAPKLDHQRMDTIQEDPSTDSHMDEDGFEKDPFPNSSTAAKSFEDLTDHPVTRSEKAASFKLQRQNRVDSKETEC

Q: Which “Cleavage by ADAM17” value does the source give for “Peptide 2a: TREM2 stalk region derived synthetic peptide with 7-methoxycoumarin (Mca) tag; SEQ ID NO: 29 (ESESFEDAHVEH; also: 7-methoxycoumarin (Mca) tag, position not given here)” here?
A: Its value is “only very little or no reduction of the parent peptide”.

Q: Which “Cleavage by ADAM17” value does the source give for “Peptide 2: TREM2 stalk region derived synthetic peptide with 7-methoxycoumarin (Mca) tag; SEQ ID NO: 26 (PLDHRDAGDLWFPGESESFE; also: 7-methoxycoumarin (Mca) tag, position not given here)” here?
A: The value was “only very little or no reduction of the parent peptide”.

Q: “Peptide 1: TREM2 stalk region derived synthetic peptide with 7-methoxycoumarin (Mca) tag; SEQ ID NO: 25 (SLHGSEADTLRKVLVEVLAD; also: 7-methoxycoumarin (Mca) tag, position not given here)” was tested. Which “Cleavage by ADAM17” value did it give?
A: Its value is “only very little or no reduction of the parent peptide”.

Q: How did the “Cleavage by ADAM17” value turn out when “1a: TREM2 stalk region derived synthetic peptide with 7-methoxycoumarin (Mca) tag; SEQ ID NO: 28 (VLVEVLADPLDHRD; also: 7-methoxycoumarin (Mca) tag, position not given here) [Peptide 1a]” was run?
A: The value was “only very little or no reduction of the parent peptide”.

These molecules were tested on HEK293-FT cells (assay: FACS analysis of cell surface expression of TREM2 WT and mutants in HEK293-FT cells with or without PMA). Details: co-transfected with hDAP12, 48 h, 30 min 50 ng/ml PMA, ratio of 1 = complete inhibition of shedding, FIG. 4B.
Format: cell-based
Source text: FIGS. 4A-4D show the amino acid stretch in the membrane proximal part of the TREM2 stalk region are important for shedding. […] Amino acid numbering according to iProt Q9NZC2. TM: transmembrane region. Gaps indicate deleted amino acids within the respective mutant. Exchanged amino acids in bold. Underlined amino acids indicates main sheddase cleavage site for generation of the C-terminus of TREM2 ectodomain. […] FIG. 4B is a bar graph showing FACS analysis of TREM2 WT and mutants transiently expressed in HEK293-FT cells. Cells were treated 48 hours after transfection with 50 ng/ml PMA or 0.05% DMSO. Cells were detached, labelled with AF1828 antiserum and analyzed by flow cytometry. Data are plotted as the ratio of untreated over PMA treatment for each mutant as mean±S.E. (n=3). Statistical differences to WT were calculated by Anova with Dunnett's multiple comparison test. *P<0.01. TREM2-double mutant was stably expressed in BWZ-lacZ-mDAP12 cells. Cells were seeded on an activating monoclonal antibody or isotype control and reporter gene activity assessed after 16 h. Data are plotted as the ratio of RGA for activating/control Ab as mean±S.E. (n=3). FIG. 4D is a bar graph showing replacement of the three amino acids at the sheddase cleavage site strongly increases TREM2 cell surface expression. FACS analysis of TREM2 WT and mutants transiently expressed in HEK293-FT cells. Cells were treated 48 h after transfection with 50 ng/ml PMA or 0.05% DMSO. Cells were detached, labelled with AF1828 antiserum and analyzed by flow cytometry. Data are plotted as the ratio of untreated over PMA treatment for each mutant as mean±S.E. (n=3). Statistical differences were calculated by Anova with Dunnett's multiple comparison test. *P<0.01.
Human TREM2 mutants were generated using the QuikChange Site-directed Mutagenesis Kit (Stratagene) and confirmed by sequence analysis. Transfections of complementary DNA (cDNA) constructs were carried out in a 1:1 ratio of hDAP12 and TREM2 in HEK-FT cells using Lipofectamine LTX reagent (Thermofischer) according to the manufacturer's recommendations. 48 h after transfection cells were treated for 30 min with 50 ng/ml PMA or 0.05% DMSO and detached with a cell detachment solution Accutase (Sigma) and stained with goat anti human TREM2 antibody AF1828 (R&D Systems) or isotype control followed by incubation with the secondary Alexa Fluor 488 conjugated antibody (Molecular Probes). Acquisition was performed using a BD FACSCanto II (BD biosciences).
Wild-type (WT) TREM2 or TREM2 mutants were transfected together with hDAP12 into HEK-FT cells. 48 h later cells were treated for 30 min with PMA to activate ADAMs at cell surface (see Sommer, Nature Communications 7, 11523, 2016). TREM2 cell surface expression was assessed by FACS, and results are presented as expression ratio of untreated over PMA treatment (FIG. 4B). The evaluation of each construct in the presence and absence of PMA treatment overcomes the possibility that some constructs might display different binding properties for the antiserum and allows direct comparison of changes in TREM2 cell surface expression after activation of sheddases. A ratio of 1 indicates complete inhibition of shedding. […] Next four shorter deletion mutants were generated encompassing this area, each 6 amino acids long (TRUNC1, T2del3-8, T2del6-11 and T2del11-16).

Q: With “T2del6-11: human TREM2 6 amino acid deletion mutant of the stalk region; SEQ ID NO: 16 (LWFPGESESFEDAHVEHSISRSLFPPTSILLLLAC)” as the molecule, how does the “PMA induced TREM2 shedding (TREM2 cell surface expression ratio of untreated over PMA treatment)” value read?
A: Its value is “no or very little effect on shedding”.

Q: How did the “PMA induced TREM2 shedding (TREM2 cell surface expression ratio of untreated over PMA treatment)” value turn out when “T2del3-8: human TREM2 6 amino acid deletion mutant of the stalk region; SEQ ID NO: 15 (LWFPGESESFEDAHVEHSISRSLLEGTSILLLLAC)” was run?
A: The value was “no or very little effect on shedding”.

Q: How did the “PMA induced TREM2 shedding (TREM2 cell surface expression ratio of untreated over PMA treatment)” value turn out when “TRUNC1: human TREM2 6 amino acid deletion mutant of the stalk region; SEQ ID NO: 14 (LWFPGESESFEDAHVEHSISRSLLEGEIILLLLAC)” was run?
A: The value was “no or very little effect on shedding”.

Q: For B1, which “PMA induced TREM2 shedding (TREM2 cell surface expression ratio of untreated over PMA treatment)” value is on record?
A: Its value is “maximally reduces TREM2 shedding”.

Q: B2 was tested. Which “PMA induced TREM2 shedding (TREM2 cell surface expression ratio of untreated over PMA treatment)” value did it give?
A: Its value is “reduced PMA induced shedding”.
